# US20090305419
# Assays:
# Assay in all cases: cell_activity
# [1] = system: CCR5 ZFN SBS#8266, L6a linker (artificial (zinc finger-FokI)); conditions: average of 2; ZFN pair
# [2] = system: CCR5 ZFN SBS#8266, L7a linker (artificial (zinc finger-FokI)); conditions: ZFN pair
# [3] = system: CCR5 ZFN SBS#8266, wild-type ZC linker (artificial (zinc finger-FokI)); conditions: average of 2; ZFN pair
# [4] = system: mROSA-targeted ZFN pair, Wt/L7a linkers (artificial (zinc finger-FokI)); conditions: Neuro2A; mock 0.4
# [5] = system: mROSA-targeted ZFN pair, Wt/Wt linkers (artificial (zinc finger-FokI)); conditions: Neuro2A; mock 0.4; repeats 23.2 and 18.7
# [6] = system: rat IgM-targeted ZFN pair, ZC linker (artificial (zinc finger-FokI)); conditions: rat C6 cells, CEL-I
# [7] = system: rat IgM-targeted ZFN pair, with L7a linker (artificial (zinc finger-FokI)); conditions: rat C6 cells, CEL-I
# Sequence of CCR5 ZFN SBS#8266, L6a linker (artificial (zinc finger-FokI)) (chain, as listed by the source): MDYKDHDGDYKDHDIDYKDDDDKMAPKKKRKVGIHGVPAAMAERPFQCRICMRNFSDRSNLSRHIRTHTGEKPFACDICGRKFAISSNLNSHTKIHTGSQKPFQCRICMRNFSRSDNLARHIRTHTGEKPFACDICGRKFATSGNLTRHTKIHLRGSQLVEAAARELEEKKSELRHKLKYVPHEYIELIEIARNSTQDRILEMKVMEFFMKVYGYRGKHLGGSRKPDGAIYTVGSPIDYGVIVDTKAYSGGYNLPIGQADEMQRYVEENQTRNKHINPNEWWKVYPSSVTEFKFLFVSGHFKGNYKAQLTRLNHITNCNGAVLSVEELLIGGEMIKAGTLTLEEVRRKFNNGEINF
# Sequence of CCR5 ZFN SBS#8266, wild-type ZC linker (artificial (zinc finger-FokI)) (chain, as listed by the source): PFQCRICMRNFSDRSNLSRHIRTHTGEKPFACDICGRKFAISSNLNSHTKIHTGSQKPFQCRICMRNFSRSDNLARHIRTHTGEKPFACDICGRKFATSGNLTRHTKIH
substance,measurement,setting,value
"CCR5 ZFN target, 6 bp gap",activity,[1],25.4 % NHEJ
same,activity,[2]; average of 2,31.8 % NHEJ
same,activity,[3],11.1 % NHEJ
"CCR5 ZFN target, 5 bp gap",activity,[1],39.3 % NHEJ
same,activity,[3],35 % NHEJ
"CCR5 ZFN target, 4 bp gap",activity,[3],1.2 % NHEJ
"CCR5 ZFN target, 7 bp gap",activity,[1],5.1 % NHEJ
same,activity,[2]; average of 2,39.6 % NHEJ
"mROSA target, 6 bp gap",activity,[4],7.5 % NHEJ
same,activity,[5],22.6 % NHEJ
"rat IgM target, 6 bp gap",activity,[6],1.93 % NHEJ
same,activity,[7],2.43 % NHEJ
"CCR5 ZFN target, 8 bp gap",activity,[2]; average of 2 as printed,6.1 % NHEJ
